Test system: Escherichia coli TOP10
Experiment: shrunken log2 fold change of peptide-encoding DNA abundance (4.5 h post-induction vs induction); higher = less antimicrobial activity (less host growth inhibition)
Conditions: time post-induction: 4.5 h; library: site-saturation at positions 5, 18, 19, 20
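Also: peptides expressed intracellularly from a pBAD plasmid library in pooled LB shake-flask culture, induced with 0.3% L-arabinose, DNA abundance read by NGS, three biological replicates, DESeq2 with apeglm shrinkage.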

| Sequence | shrunken log2 fold change |
| --- | --- |
| RRIRDRPPRLPRPRPRPALNPRP | -0.0576 |
| RRIRARPPRLPRPRPRPGIIPRP | 0.106 |
| RRIRCRPPRLPRPRPRPTGAPRP | 0.419 |
| RRIRQRPPRLPRPRPRPTDFPRP | -0.122 |
| RRIRTRPPRLPRPRPRPRYWPRP | -0.156 |
| RRIRPRPPRLPRPRPRPGNQPRP | -0.143 |
| RRIRSRPPRLPRPRPRPAQWPRP | 0.595 |
| RRIRNRPPRLPRPRPRPNQSPRP | -0.157 |
| RRIRCRPPRLPRPRPRPQYCPRP | -0.135 |
| RRIRRRPPRLPRPRPRPDNSPRP | -0.078 |
| RRIRYRPPRLPRPRPRPSFIPRP | -0.851 |
| RRIRARPPRLPRPRPRPWYYPRP | -0.628 |
| RRIRYRPPRLPRPRPRPWNDPRP | -0.0728 |
| RRIRWRPPRLPRPRPRPHMFPRP | -0.0668 |
| RRIRVRPPRLPRPRPRPYWYPRP | -0.964 |
| RRIRPRPPRLPRPRPRPLPFPRP | -0.75 |
| RRIRQRPPRLPRPRPRPHDDPRP | 0.043 |
| RRIRTRPPRLPRPRPRPCGAPRP | 0.0999 |
| RRIRSRPPRLPRPRPRPKSAPRP | 0.403 |
| RRIRPRPPRLPRPRPRPASFPRP | 0.0681 |
| RRIRIRPPRLPRPRPRPNMGPRP | -0.563 |
| RRIRQRPPRLPRPRPRPTAGPRP | 0.144 |

| Sequence | shrunken log2 fold change |
| --- | --- |
| RRIRVRPPRLPRPRPRPKREPRP | 0.225 |
| RRIRWRPPRLPRPRPRPVTEPRP | 0.361 |
| RRIRQRPPRLPRPRPRPHDYPRP | -0.00281 |
| RRIRPRPPRLPRPRPRPMYAPRP | -0.302 |
| RRIRQRPPRLPRPRPRPPCMPRP | -0.0968 |
| RRIRNRPPRLPRPRPRPMNFPRP | -0.0203 |
| RRIRIRPPRLPRPRPRPRSGPRP | 0.242 |
| RRIRNRPPRLPRPRPRPTKDPRP | -0.197 |
| RRIRSRPPRLPRPRPRPVSMPRP | 0.0888 |
| RRIRRRPPRLPRPRPRPQYIPRP | 0.0837 |
| RRIRFRPPRLPRPRPRPCQIPRP | -0.0143 |
| RRIRTRPPRLPRPRPRPQIGPRP | -0.0138 |
| RRIRIRPPRLPRPRPRPHEMPRP | -0.143 |
| RRIRSRPPRLPRPRPRPPTCPRP | 0.155 |
| RRIRCRPPRLPRPRPRPTPPPRP | 0.807 |
| RRIRVRPPRLPRPRPRPTHEPRP | 0.256 |
| RRIRDRPPRLPRPRPRPVNIPRP | 0.0452 |
| RRIRWRPPRLPRPRPRPHAQPRP | 0.0298 |
| RRIRIRPPRLPRPRPRPVNYPRP | -0.0508 |
| RRIRWRPPRLPRPRPRPCILPRP | -0.39 |
| RRIRIRPPRLPRPRPRPGRAPRP | 0.431 |
| RRIRLRPPRLPRPRPRPQQVPRP | 0.107 |

| Sequence | shrunken log2 fold change |
| --- | --- |
| RRIRQRPPRLPRPRPRPFHFPRP | -0.0115 |
| RRIRIRPPRLPRPRPRPQNIPRP | -1.22 |
| RRIRPRPPRLPRPRPRPESQPRP | -0.0975 |
| RRIRCRPPRLPRPRPRPWHTPRP | -0.261 |
| RRIRNRPPRLPRPRPRPVCTPRP | -0.157 |
| RRIRHRPPRLPRPRPRPYSKPRP | -1.03 |
| RRIRFRPPRLPRPRPRPLRGPRP | 0.607 |
| RRIRYRPPRLPRPRPRPAGDPRP | -0.232 |
| RRIRMRPPRLPRPRPRPKKDPRP | 0.942 |
| RRIRIRPPRLPRPRPRPLWEPRP | 0.223 |
| RRIRSRPPRLPRPRPRPMNLPRP | 0.048 |
| RRIRLRPPRLPRPRPRPIFVPRP | -0.0836 |
| RRIRPRPPRLPRPRPRPHMAPRP | -0.276 |
| RRIRGRPPRLPRPRPRPCIMPRP | 0.177 |
| RRIRCRPPRLPRPRPRPNFEPRP | -0.0286 |
| RRIRRRPPRLPRPRPRPIRNPRP | 0.113 |
| RRIRPRPPRLPRPRPRPMPMPRP | -0.301 |
| RRIRVRPPRLPRPRPRPSWGPRP | 0.0232 |
| RRIRHRPPRLPRPRPRPVFIPRP | -0.493 |
| RRIRMRPPRLPRPRPRPFQIPRP | -0.0803 |
| RRIRIRPPRLPRPRPRPMLNPRP | -0.526 |
| RRIRVRPPRLPRPRPRPNHTPRP | -0.402 |

| Sequence | shrunken log2 fold change |
| --- | --- |
| RRIRPRPPRLPRPRPRPCVSPRP | -0.0858 |
| RRIRTRPPRLPRPRPRPTDVPRP | 0.284 |
| RRIRTRPPRLPRPRPRPDCTPRP | 0.0818 |
| RRIRRRPPRLPRPRPRPRHCPRP | 0.119 |
| RRIRGRPPRLPRPRPRPCMRPRP | 0.767 |
| RRIRNRPPRLPRPRPRPYIFPRP | -0.327 |
| RRIRRRPPRLPRPRPRPLCYPRP | -0.236 |
| RRIRFRPPRLPRPRPRPNLHPRP | -0.235 |
| RRIRHRPPRLPRPRPRPAHGPRP | 0.0855 |
| RRIRRRPPRLPRPRPRPIPVPRP | 0.265 |
| RRIRYRPPRLPRPRPRPQDEPRP | -0.0312 |
| RRIRTRPPRLPRPRPRPLENPRP | 0.0394 |
| RRIRGRPPRLPRPRPRPNYLPRP | -0.304 |
| RRIRTRPPRLPRPRPRPCQLPRP | -0.161 |
| RRIRKRPPRLPRPRPRPWQAPRP | 0.000778 |
| RRIRARPPRLPRPRPRPKVLPRP | 0.269 |
| RRIRERPPRLPRPRPRPPSCPRP | 0.103 |
| RRIRSRPPRLPRPRPRPFIEPRP | -0.285 |
| RRIRYRPPRLPRPRPRPLRKPRP | -0.258 |
| RRIRWRPPRLPRPRPRPWTKPRP | -0.0653 |
| RRIRKRPPRLPRPRPRPCTNPRP | -0.0404 |
| RRIRLRPPRLPRPRPRPQFRPRP | -0.244 |

| Sequence | shrunken log2 fold change |
| --- | --- |
| RRIRERPPRLPRPRPRPDEKPRP | 0.147 |
| RRIRLRPPRLPRPRPRPVQAPRP | -0.0131 |
| RRIRSRPPRLPRPRPRPYQMPRP | -0.557 |
| RRIRSRPPRLPRPRPRPSNAPRP | -0.276 |
| RRIRDRPPRLPRPRPRPGTLPRP | -0.00146 |
| RRIRSRPPRLPRPRPRPCNGPRP | -0.0821 |
| RRIRHRPPRLPRPRPRPNCCPRP | 0.0161 |
| RRIRIRPPRLPRPRPRPRWEPRP | 0.0225 |
| RRIRFRPPRLPRPRPRPNWFPRP | 0.0383 |
| RRIRNRPPRLPRPRPRPTTCPRP | -0.275 |
| RRIRVRPPRLPRPRPRPCTPPRP | -0.13 |
| RRIRMRPPRLPRPRPRPPELPRP | 0.372 |
| RRIRFRPPRLPRPRPRPLTYPRP | -0.573 |
| RRIRERPPRLPRPRPRPEGVPRP | 0.172 |
| RRIRVRPPRLPRPRPRPAMFPRP | -0.0685 |
| RRIRSRPPRLPRPRPRPIHHPRP | -0.362 |
| RRIRVRPPRLPRPRPRPRCKPRP | 0.039 |
| RRIRKRPPRLPRPRPRPPKEPRP | 0.944 |
| RRIRMRPPRLPRPRPRPELFPRP | 3.28 |
| RRIRSRPPRLPRPRPRPETWPRP | -0.0382 |
| RRIRGRPPRLPRPRPRPILTPRP | 0.351 |
